Kd data for one substance are collected here from paper doi:10.1101/2024.07.16.603692.

The assay concerns the target CBP-UPF1-CH-HD (aa 115-914) (human) (UniProt Q92900). Description: MST.

Substance “UPF2(770-1204) (from UniProt Q9HAU5 770-1204) (domain or fragment)” yielded a Kd of 10 nM.

Usually Kd stands for a measure of binding affinity in units of concentration. Low values mean tighter binding, high ones weaker binding.
